Like-named read-outs stand apart in the source and are kept apart here. Positions of bridges follow the written chain, without caps; N, C: chain ends. Non-standard residues stand in square brackets, D forms with d. No end group written: not given here. Ida bridge carrying fatty‑acid side chain of Intermediate A‑1 = not defined here; Aib = CC(C)(N)C(=O)O
What was measured:
[1] = test system: mouse plasma albumin; format: in vitro ADME
Experimental: (§1) To study the binding of the test compounds to human/mouse plasma albumin. • 1. Blank matrix preparation: On the day of the experiment, the plasma was thawed in cold water and centrifuged at 3220 rpm for 5 min to remove all the blood clots. The pH of the resulting plasma was measured and adjusted to 7.4±0.1 with 1% phosphoric acid or 1 N sodium hydroxide as desired. • 2. Dilution of the test compounds: the test compounds were dissolved in dimethyl sulfoxide (DMSO) to prepare stock solutions of 10 mM and 2 mM, respectively. 2 μL of the stock solution (2 mM) was diluted with 98 μL of DMSO to obtain a working solution of 40 μM. 10 μL of the stock solution was diluted with 240 μL of DMSO to obtain a working solution of control compounds of 400 μM. A working solution of the compounds (5 μL) was mixed evenly with a blank matrix (995 μL) at a ratio of 1:200 to prepare a loading matrix. • 3. Analytical procedure • 3.1 Equal amounts of 30 μL of the loading matrix (n=2) were transferred into a sample collection plate to prepare Time 0 (T0) samples for residue determination. The samples were immediately matched with corresponding blank buffer to a final volume of 60 μL, with a volume ratio of plasma (the loading matrix) to buffer being 1:1 in each well. Then, into the TO samples of the test compounds were respectively added 60 μL of 4% H3PO4 in H2O and 480 μL of stop solution containing internal standard. They were then stored at 2° C. to 8° C. together with other samples for further treatment. • 3.2 The remaining plasma samples were pre-incubated in a carbon dioxide incubator at 37±1° C. for 30 min. Protein-free samples (F samples) were prepared. Matrix-loaded samples (230 μL) were all transferred into polycarbonate tubes (n=2) and ultracentrifuged at 37° C. and 155,000×g (35000 rpm) for 4 h. • 3.3 To prepare T samples (test samples), an additional matrix-containing sample was transferred into a separate 96-well plate (sample incubation plate) and incubated at 37° C. for 4 h. • 3.4 At the end of centrifugation, 30 μL of protein-free samples (F samples) and 30 μL of T samples were taken from the second layer (beneath the upper layer) of the supernatant and transferred into a new sample collection plate. Each sample was mixed with corresponding blank buffer or matrix to a final volume of 60 μL, and the blank matrix:buffer volume ratio is 1:1. Into all the samples were added 60 μL of 4% H3PO4 solution in water and 480 μL of stop solution containing internal standard. The mixture was centrifuged at 4000 rpm for 20 min. 100 μL of supernatant for each sample was taken for LC-MS/MS analysis.

[2] = test system: human plasma albumin; format: in vitro ADME
Experimental: as §1

[3] = set-up: species or system Cynomolgus macaques; settings: cynomolgus monkey, in vivo, sc, 0.02 mg/kg
Experimental: (§2) To test the pharmacokinetic profiles of the compounds in Cynomolgus macaques. The pharmacokinetic characteristics in mammals following intravenous injection and subcutaneous injection of the compounds were tested using standard protocols. In the experiment, the candidate compounds were formulated into clear solution, which was administered to Cynomolgus macaques by single subcutaneous injection (SC, 0.02 mpk). The vehicle for subcutaneous injection was citrate buffer solution (20 mM, pH=7). The whole blood was collected and processed to get the plasma. The drug concentration was analyzed by LC-MS/MS, and the pharmacokinetic parameters were calculated using Phoenix WinNonlin software.

[4] = set-up: species or system C57BL/6 mice; settings: mouse, in vivo, sc, 0.048 mg/kg
Experimental: as §2, with “C57BL/6 mice.” for “Cynomolgus macaques.”, “rodent animals” for “mammals”, “following” for “following intravenous injection and”, “administered” for “administered to Cynomolgus macaques”, “by” for “by single”, “0.048” for “0.02”

[5] = set-up: species or system SD rats; settings: rat, in vivo, sc, 0.048 mg/kg
Experimental: as §2, with “SD rats.” for “Cynomolgus macaques.”, “rodent animals” for “mammals”, “following” for “following intravenous injection and”, “the rats” for “Cynomolgus macaques”, “0.048” for “0.02”, “for” for “for subcutaneous”

[6] = molecular target: T1, GIPR (UniProt P48546 22-466, limits assumed); test: cell-based or functional assay
T1 sequence (looked up): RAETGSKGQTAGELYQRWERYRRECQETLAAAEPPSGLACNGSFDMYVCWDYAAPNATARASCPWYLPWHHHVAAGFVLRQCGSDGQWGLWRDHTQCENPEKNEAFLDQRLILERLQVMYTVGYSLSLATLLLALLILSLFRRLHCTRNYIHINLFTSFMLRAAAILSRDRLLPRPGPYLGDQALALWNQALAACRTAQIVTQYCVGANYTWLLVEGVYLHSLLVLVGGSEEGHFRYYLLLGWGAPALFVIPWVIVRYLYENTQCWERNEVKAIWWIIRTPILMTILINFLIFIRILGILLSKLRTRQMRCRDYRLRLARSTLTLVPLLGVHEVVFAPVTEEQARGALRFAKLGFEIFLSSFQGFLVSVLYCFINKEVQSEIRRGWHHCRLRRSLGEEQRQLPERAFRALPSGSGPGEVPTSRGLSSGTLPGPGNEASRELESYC

[7] = molecular target: GLP-1R (UniProt P43220 24-463, limits assumed); test: cell-based or functional assay

CC[C@H](C)[C@H](NC(=O)[C@H](CC(C)C)NC(=O)[C@H](Cc1c[nH]c2ccccc12)NC(=O)[C@H](CCC(=O)O)NC(=O)[C@@H](NC(=O)[C@H](Cc1ccccc1)NC(=O)[C@H](C)NC(=O)[C@@H]1CCCCNC(=O)CN(C(=O)COCCOCCNC(=O)COCCOCCNC(=O)CC[C@H](NC(=O)CCCCCCCCCCCCCCCCCCC(=O)O)C(=O)O)CC(=O)NCCCC[C@H](NC(=O)[C@H](CCCCN)NC(=O)[C@H](CC(=O)O)NC(=O)[C@H](CC(C)C)NC(=O)C(C)(C)NC(=O)[C@@H](NC(=O)[C@H](CO)NC(=O)[C@H](Cc2ccc(O)cc2)NC(=O)[C@H](CC(=O)O)NC(=O)[C@H](CO)NC(=O)[C@@H](NC(=O)[C@H](Cc2ccccc2)NC(=O)[C@@H](NC(=O)CNC(=O)[C@H](CCC(=O)O)NC(=O)C(C)(C)NC(=O)[C@@H](N)Cc2ccc(O)cc2)[C@@H](C)O)[C@@H](C)O)[C@@H](C)CC)C(=O)N[C@@H](C)C(=O)N[C@@H](CCC(N)=O)C(=O)N1)C(C)C)C(=O)N[C@@H](C)C(=O)NCC(=O)NCC(=O)N1CCC[C@H]1C(=O)N[C@@H](CO)C(=O)N[C@@H](CO)C(=O)NCC(=O)N[C@@H](C)C(=O)N1CCC[C@H]1C(=O)N1CCC[C@H]1C(=O)N1CCC[C@H]1C(=O)N[C@@H](CO)C(N)=O [WX-005]
PPB % unbound (M) [1]: NA/NA | PPB % unbound (H) [2]: NA/NA

CC[C@H](C)[C@H](NC(=O)[C@H](CC(C)C)NC(=O)[C@H](Cc1c[nH]c2ccccc12)NC(=O)[C@H](CCC(=O)O)NC(=O)[C@@H](NC(=O)[C@H](Cc1ccccc1)NC(=O)[C@H](CCC(=O)O)NC(=O)[C@@H]1CCCCNC(=O)CN(C(=O)COCCOCCNC(=O)COCCOCCNC(=O)CC[C@H](NC(=O)CCCCCCCCCCCCCCCCCCC(=O)O)C(=O)O)CC(=O)NCCCC[C@H](NC(=O)[C@H](CCCCN)NC(=O)[C@H](CC(=O)O)NC(=O)[C@H](CC(C)C)NC(=O)C(C)(C)NC(=O)[C@@H](NC(=O)[C@H](CO)NC(=O)[C@H](Cc2ccc(O)cc2)NC(=O)[C@H](CC(=O)O)NC(=O)[C@H](CO)NC(=O)[C@@H](NC(=O)[C@H](Cc2ccccc2)NC(=O)[C@@H](NC(=O)CNC(=O)[C@H](CCC(=O)O)NC(=O)C(C)(C)NC(=O)[C@@H](N)Cc2ccc(O)cc2)[C@@H](C)O)[C@@H](C)O)[C@@H](C)CC)C(=O)N[C@@H](C)C(=O)N[C@@H](CCC(N)=O)C(=O)N1)C(C)C)C(=O)N[C@@H](C)C(=O)NCC(=O)NCC(=O)N1CCC[C@H]1C(=O)N[C@@H](CO)C(=O)N[C@@H](CO)C(=O)NCC(=O)N[C@@H](C)C(=O)N1CCC[C@H]1C(=O)N1CCC[C@H]1C(=O)N1CCC[C@H]1C(=O)N[C@@H](CO)C(N)=O [WX-009]
PPB % unbound (M) [1]: NA/NA | PPB % unbound (H) [2]: NA/NA | AUC(0-t) [3]: 4.74 µM·h | half-life [3]: 105 h | AUC(0-t) [4]: 1.99 µM·h | half-life [4]: 17 h | AUC(0-t) [5]: 1.09 µM·h | half-life [5]: 21 h

B1: polypeptide WX-005 (peptide)
peptide: Y[Aib]EGTFTSDYSI[Aib]LDKKAQKAFVEWLIAGGPSSGAPPPS-NH2
modifications: linker 17-20 via Ida; also: Ida bridge carries fatty-acid side chain of Intermediate A-1
EC50, cAMP assay, (+) 1% HSA [6]: 19.3 nM | EC50, cAMP assay, (-) 1% HSA [6]: 0.16 nM | Ratio (EC50 (+) 1% HSA over (-) 1% HSA) [6]: 121 | EC50, cAMP assay, (+) 1% HSA [7]: 7.63 nM | EC50, cAMP assay, (-) 1% HSA [7]: 0.036 nM | Ratio (EC50 (+) 1% HSA over (-) 1% HSA) [7]: 212

B2: polypeptide WX-009 (peptide)
peptide: Y[Aib]EGTFTSDYSI[Aib]LDKKAQKEFVEWLIAGGPSSGAPPPS-NH2
modifications: linker 17-20 via Ida bridge carrying fatty‑acid side chain of Intermediate A‑1; reading uncertain
EC50, cAMP assay, (-) 1% HSA [6]: 0.074 nM | EC50, cAMP assay, (-) 1% HSA [7]: 0.014 nM

B3: polypeptide compound WX-001 (peptide)
peptide: Y[Aib]EGTFTSDYSI[Aib]LDKIAQKAFVKWLIAGGPSSGAPPPS-NH2
modifications: linker 20-24 via Ida bridge carrying fatty‑acid side chain of Intermediate A‑1; reading uncertain
EC50, cAMP assay, (+) 1% HSA [6]: 16 nM | EC50, cAMP assay, (-) 1% HSA [6]: 0.324 nM | Ratio (EC50 (+) 1% HSA over (-) 1% HSA) [6]: 49.3 | EC50, cAMP assay, (+) 1% HSA [7]: 16.6 nM | EC50, cAMP assay, (-) 1% HSA [7]: 0.0596 nM | Ratio (EC50 (+) 1% HSA over (-) 1% HSA) [7]: 279

B4: polypeptide WX-010 (peptide)
peptide: Y[Aib]EGTFTSDYSI[Aib]LDKKAQKAFVEWLIAGGPSSGAPPPS-NH2
modifications: bridge 17-20; not fully specified (bridges); also: Glu bridge amino group carries fatty-acid side chain of Intermediate A-1
EC50, cAMP assay, (-) 1% HSA [6]: 0.14 nM | EC50, cAMP assay, (-) 1% HSA [7]: 0.017 nM
